Test results: a protein production outcome set (Wang et al. 2014)

Assay: label from the status in PepcDB records

Sequence	protein production
MNFSTSFWQGFRALVPLWLGTVPFALAYAVTARAAGLSVGDTCLMSLTTFAGASQFAAAGLFGAHAGGLSIVLTTFLLNARHLLYGLSLARELRLTLPQRVVAAQFLTDEAYGVAVVSGARLPGGLTFAFLLGAELSLYLSWNVSTLLGALAGSVLPPPEQLGVGVVFPLAFLGLLVPLVVDRLSLLVALAAGLGGWALSRVLPGGLVILLAGVGGALLGAALLTRREQRAGVRA	failed
MNGFVQWMEVKLMPIANKFGSQRHMTAIRKGLIATMPLTIVGSFFTIFQNIPIEAYTKLIEPYQAILDIPSRYTMGLLALYATFGIASSLAKSYKLDSLTCGILALMAFLVTAAPPTRVFEDVDNVITAGRYINLANLGSASLFGAIVTALLSVEIYRFFIEKDIMIKMPDGVPPEVSNSFIALIPGAVILLLFWVIRHVIGFDLNGFLSTLLMPLKGILAGNSLFGGLLTVFLICFFWVLGIHGPAIMGPVIRPFWDMSIAENLEAFTNGANVHQLPNIFTEQFLQWFIWIGGAGTTLSLVVLMMFSKSTYLKSLGRLSFLPGLFNINEPVIFGTPIVMNPILGIPFIVAPLITTTLSYFLTVANIIPMMAARLAFAIPAPIAAWMSTNWSFSAAVLVIVNFLITMAIYYPFFKVYEKQQLDKEAEELAAEQAAKN	failed
MNGGSSIKVLGLVGSPKVDGNTAKMVDAILEGAAENGAETVIYNLASLDIKGCDACHRCQETGCCAIDDDMQELYRQIEEADAVVLGSPVYMWQMTAQTKLLIDRMTAFLKPNFSSRLDHKKLILVFTQGIPDRDAFNSYFEYTAGVLYYLGFDVLETIVAAGTDNLEVAFRPRLLEKSRELGKLISASNPVSPRLEHHHHHH	failed
MNGGTFTPGKEKDRAGIYFNFKTTAEERVSIGDRGTVALPVVMSWGEPKTFVSISSIEDLNKKVGLNIDDPSLLLFREAKKNAQTVLLYRLNTGAPAKAQIGETLSVTAKYGGEKGNDISIRISENVLDSKKFDVTTFVGTDEADRQTVKTAEELTANAYVAFQGEGALELTAGTKLSGGENGTASVADYTAFLDAAETEYFNTIALPVADNEQLKATFAAFIKRLRDKQGQKVQGVVADYAGDYEGIINVTGGVVLEDGTEITPEKATAWVAGASAGATFNQSLTFVEYEGAVDVLNRLDEDQVIERLKKGEFLFTFDARDQSVSVEKDINSLTSFTADKNKKFSKNKIIRVLDGVNNDLTRELKALIKARKASGSDIPASDDGLQYVKTLIIQYMTALQEAGGITGFDSESDIAITLNEDRDGFLIDLAVQPVDAAEKFYFNVEVK	failed
MNGYVYLVGAGPGDEGLITKKAIECLKRADIVLYDRLLNPFFLSYTKQTCELMYCGKMPKNHIMRQEMINAHLLQFAQEGKIVVRLKGGDPSIFGRVGEEAETLAAANIPYEIVPGITSSTAASSYAGIPLTHRNYSNSVTLLTGHAKGSLTDHGKYNSSHNSDTIAYYMGIKNLPTICKNLRQAGKKEDTPVAVIEWGTTGKQRVVTGTLSTIVSIVKNENISNPSMTIVGDVVSLRDQIAWKEHKPLHGKKVLFTSATNKTSVMKQKLQEAGAEIYQIPTFKKEEYTLTLEQIIEIFNVNRLVFCSAESVEILMQSCSKYKKDIRSLQAELQHMNVATQEKLMQYGLLSKEAKFSSDTTVYLGRNINRIAFIQEKIGAGSYMMTHKYTIDHRFDEVHSRMLSEFLWDSIVFEGRASIDTFLAEVKRLGFLDIVTLPFSYTDVPTLRYANKVGFHNIDHQLQETLMQKDMVRQ	failed
MNHFTPAQQRKALGYLVLFHLVIIASSNYLVQIPFTIFGFHTTWGAFTFPFIFLATDLTVRIFGAGLARKIIFLVMLPALAVSYLLSVVFFEGQYQGLAPLSEFNLFVARIAIASFMAYLLGQIMDVHVFNRLRQMKQWWVAPTCSTLFGNALDTIAFFSIAFYQSSDPFMAEHWTEIALVDYTFKLIISLGLFVPMYGVLLNYLIKKLTAVNPNFAMASAKA	failed
MNHLISVGALESFLVAISVLFLGHFINAKLPILKKFNIPEPIVGGLIVACIITALHFNGVDLEFDLPLQNTFMLMFFATVGLAANYTQLMKGGAKVFIFLAVASFYIIIQNGVGVSLAAALGLDPLMGLIAGSITLSGGHGTGAAWSQTFQDVYGLNNVLEIAMASATFGLIIGGIIGSPVAQRLVEKHGIESEYGRGGRDAKTHEKFPELVTYNEYEEDKVTAKKVVEKLFFLLICVTGAKYVEQWVSTYEISWLMIPDFVYALFIGVIITNFLEVTKIRKLDAETVDMLGTVSLSLFLAMALMSLKLWNIFDLAIPFLVILAIQSVILAIFTYYVTFKVMGSNYDAAVISGGHCGFGLGATPTAVMNMGSIVNRFGPSPQAFMVVPIVGAFFIDIVNLIILQGYISFLG	failed
MNHLPEKMRPYRDLLEKSAKEYVKLNVRKGKTGRYDSKIAGDPYFPKHETYPTDENGQPMKLLAQINFSHIPQLDGYPSSGILQFYISVHDDVYGLNFDDRCEQKNFRVIYFENIVENDDELVSDFSFIGTGECDFPILSEAAVEPVKSSEWVLPTDFQFEQYTGMETMEFFGQFGEDEEDIYNELAENGFGHKIGGYASFTQHDPREYAYKEHTIMLLQIDSDDDIDSMWGDVGIANFFITPEDLRKKDFSNVLYNWDCS	not failed
MNHTSDTALLIVNLGTPEAPTAAAVRRYLGEFLSDRRVVSIPPLFWKPLLHMVILPIRGPRSASKYAKVWLQEGSPLSVYTRRIAEGLTQHLPDWRVAWAMRYGAPALTKALDALQAQQVRRIVILPLYPQYSTTTTASVQDVVEAWCKRTPQVQVECIQDYAEDPAWVAAVAASIRRHWQAHGRSEKLMFSFHGLPQRVANNGDPYPQRCQVSASLIAAALNLNESEWVLGYQSRFGAERWLQPYAEPTLWALAESGIRRFDLVCPGFSVDCLETLEEVALGFSETLAARGATMRYIPCLNDDPAHVQALAGLAQRALP	failed
MNIAEQMKDVLKEEIKAAVLKAGLAEESQIPNVVLETPKDKTHGDYSTNMAMQLARVAKKAPRQIAEEIVAHFDKGKASIEKLDIAGPGFINFYMNNQYLTKLIPSVLEAGEAYG	failed
MNIETLMIKNPPILSKEDRLGSAFKKINEGGIGRIIVANEKIEGLLTTRDLLSTVESYCKDSCSQGDLYHISTTPIIDYMTPNPVTVYNTSDEFTAINIMVTRNFGSLPVVDINDKPVGIVTEREFLLLYKDLDEIFPVKVFMSTKVQTIYKEVRLDQAVKLMLRRGFRRLPVIDDDNKVVGIVTVVNAIKQLAKAVDKLDPDYFYGKVVKDVMVTNLVTIDELASVNRAAAEMIVKRIGSLLILNKDNTIRGIITERDLLIALHHILVMEKFKEKL	not failed
MNIILLSGKKSEAQPGDGEYPEYLCEYNGKPLIHTLIDNCAALEPRRIICTFSNDDVIGLHLRNMVQQMHPSASVLPVHNITQGAACTALLASGQIDNDDELLILSVSDFLDIELREVLRVFREANEDAGVVIFNSLHPRYSFARLDSDQRVIEAAEKNPISPHAIAGMYWFKSGSLFVSAAKEMIRKDARVNDHFYIAPALNELVLLHKKIGAYRIEPRQYRPLKTQNQLHAFEMADIR	failed
MNIILNVFLIFVSAILTKLFALFAQHTKLIDIPNERNLHSRPTVRGGGLVFIGLSLFCWFFICNSQFFLTLDQFIFSIAIIFIATISFIDDFYNLSVTIRFFFQCLIAFLIVIFILPSQLDFGLFLFENTYLIAFFLFFAVIWAINHFNFMDGLDGFCASQAIFLLAAYALFFNSAGSLIYQDFCLILISSLAGFLIFNFPPAKIFMGDVGSASLGLITFFIAIIAQKNYQIPILYWFILNSLFLFDSTVTLIRRIIKHEKWFSPHKKHAYQRLKQLGINSRFILLGQAIINGSLFLSVMFMHFQFFNLKNLIIIQLCYLSAIYFFIEKKYPME	failed
MNINIEDLIFSLDIGTRTVIGTVGSIKDKKFSVIAEKHTEHEERAMVDGQIHDINLVARAVNKVKSQIEEELGFELKDVAIAAAGRFLRTTAVRSELNIDEDKEIDKDVIRGLELTAVKKAQDEVNKETEGKLYCVGYSVKNYFLNGYAISNLLSHKGNSIAVDVIATFLPRSIVESLYAVMNKVNLNVKSLTLEPIAAMEAAVPKNLRLLNIALLDVGAGTSDIAISSKDTISAYGMVPFAGDEITEVIAQNYLVDFNTAENIKRSCNVDTEIKYTDVLGIENTIKSEEVIKLIQPTVQKLAEEVANKIIELNGEKSPNAVFIVGGGAHTPMLKDLLAENLKIQPQRLAIKGRESVTDCICTDNSLGSTGVTVLGIALVAIRRFGNDFIDVILNDNIISLFNARVHTVKDVVVQAGVNPKLLIGKNGKNVRFILNGVKRVAFGTVAKNAEIRINGLIANIDSEVKENDKIEIKYAENGIDASPIIKDYVKNLYSLGFFIDDEVVNLEPIFIINGNKVTIDTEISEGDEVETVYPSKLIHYIRYYDSDLNKEYYINNIKLDENYDIKEGDRIYTKPKEEEQEVEIIPLAEEDKEEQEVVSHPKEIEKEDDDVNTIVVVVNGNPIKMSGKEKYKFVDIFDYFKFDLTQVKGNLVLTLNGEKVSFFDELHDKDIIEVKWE	failed
MNIPVEVEVAEVLTDSAATGIFEPGDKLLSIDGTAISTPGDAQTIVRSKAPGDEITISYERNDAESQATITLREHPLEHHHHHH	failed
MNIQALLSEKVSQALIAAGAPADCEPQVRQSAKVQFGDYQANGVMAVAKKLGMAPRQLAEQVLSHLDLNGIANKVEIAGPGFINIFLDPAFLADNVNRALQSERLG	not failed
MNIRERKRKHLEACLEGEVAYQKTTTGLEGFRLRYQALAGLALSEVDLTTPFLGKTLKAPFLIGAMTGGEENGERINLALAEAAEALGVGMMLGSGRILLERPEALRSFRVRKVAPKALLIANLGLAQLRRYGRDDLLRLVEMLEADALAFHVNPLQEAVQRGDTDFRGLVERLAELLPLPFPVMVKEVGHGLSREAALALRDLPLAAVDVAGAGGTSWARVEEWVRFGEVRHPELCEIGIPTARAILEVREVLPHLPLVASGGVYTGTDGAKALALGADLLAVARPLLRPALEGAERVAAWIGDYLEELRTALFAIGARNPKEARGRVERV	not failed
MNISEINGFEVTGFVVRTTNADEMNPMTAKIGNLWEKFYLNAAPKLTDKSKVYGLYTNYESDFTGAFDVIACSDTLSPQLLSESVKTKVSSGKYVTFSATGEMPQVVIDLWNEVWNYFASEHCPHKRAYTTDFEYYKSANTVEISIAVR	not failed
MNIVIAVGILVTLVTGIPVLLQLLKGHPRGLIICFLAEMWERFSYYGMRAILIFYLTQHFLFDPKAASGHYGSYTALVYLVPLIGGFLADKWLGTRKAVAFGAVLLVAGHLAMAIEGKPAVQTLTYQGATYEFQAEGRGQNREAKLVVDGKAYEVAATKVGDFEIKGLPANAPLPAVLPKADYKLDVAGRDPLYLNIFWFSLSLIILGVGFLKPNISTIVGQLYPQGDPRRDPGFTLYYYGINLGSFWASILCGLLGVNVGWWAGFGLAGVGMLAGFIVFVLGKPWLDGKAEPPEPKVLKEKVAGPINRELAIYGLSLVGLVGIFFLVQFNAIVGVALNIGILASLGYIGFFMFTKCAKEERERLALAVFLIFGAVVFWTLFEQAGSSLSLFAATNVQLDLVREPLRLFSGAVTLATPDQLAKAGIDAASTFWVDTSFNAPQTQALNAGWILIFAPVFAAVWTFLGARGKDPNPVIKFGLALIQVGAGFLLLQWGSTFADGAFKLPLIFLVLMYMLHTTGELCMSPVGLSQMTKLSPASVVSFMMAVWFLAVAIAQWVGGKIAGLAATETVGGQVLDPGAALAASLKVFNIIGLVAVAIGIGFLLLSPVLKKWSHGADNVGAPKKA	failed
MNIVLFHSTLGPRPAVRQAADRLRDAGHQVWTPDLFEGRTFDTVEEGMAHQDGIGREELLKRAVLAAAPYSERGLVYAGFSLGASIAQTLALGDHRARGLLLLHGTSDLAPNASVDELPVQLHVAEPDPFETDDWLSAWYLQMGRIGADVEVHRYPGAGHLYTDPGLDDYDAEAAEATWRVALGFLESLQEAQAGE	failed
